Numbering of substitutions follows the chain as printed. In names and notes the source's numbering stands.

Sequences and labels used below:
T1: Med25-ACID_(532-680), activator interaction domain (ACID) of mediator complex subunit 25 (Arabidopsis thaliana, UniProt Q7XYY2 532-680)
T1 construct: 15N- or 13C,15N-labelled in the NMR titrations; unlabelled in ITC, CEST and stopped-flow; also called AtMed25-ACID; ACID domain; source: E. coli BL21 DE3, purified (glutathione Sepharose, TEV cleavage, cation exchange, SEC); not shown: GST, N-terminal, cleaved
T1 sequence (looked up): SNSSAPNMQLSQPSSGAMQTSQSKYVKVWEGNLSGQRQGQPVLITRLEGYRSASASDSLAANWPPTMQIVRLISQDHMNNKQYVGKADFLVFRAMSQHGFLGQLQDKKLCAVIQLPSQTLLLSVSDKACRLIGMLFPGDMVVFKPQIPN

B1: DREB2A_(234-335) (domain or fragment, Arabidopsis thaliana, UniProt O82132 234-335, looked up)
chain: QDSLSVADYGWPNDVDQSHLDSSDMFDVDELLRDLNGDDVFAGLNQDRYPGNSVANGSYRPESQQSGFDPLQSLNYGIPPFQLEGKDGNGFFDDLSYLDLEN
notes: DREB2A, Arabidopsis thaliana, AT5G05410, residues 234-335; source: E. coli BL21 DE3, purified (glutathione Sepharose, TEV cleavage, SEC); not shown: GST, N-terminal, cleaved
B2: DREB2A_(195-276) D241A (domain or fragment, Arabidopsis thaliana, UniProt O82132 195-276, looked up)
chain: VKADKHWLSEFEHNYWSDILKEKEKQKEQGIVETCQQQQQDSLSVAAYGWPNDVDQSHLDSSDMFDVDELLRDLNGDDVFAG
notes: source: E. coli BL21 DE3, purified (glutathione Sepharose, TEV cleavage, SEC); not shown: GST, N-terminal, cleaved
B3: DREB2A_(195-276) L237A (domain or fragment, Arabidopsis thaliana, UniProt O82132 195-276, looked up)
chain: B2 chain with L43A, A47D
notes: as for B2
B4: DREB2A_(195-276) V239A (domain or fragment, Arabidopsis thaliana, UniProt O82132 195-276, looked up)
chain: B2 chain with V45A, A47D
notes: as for B2
B5: DREB2A_(195-276) E263P (domain or fragment, Arabidopsis thaliana, UniProt O82132 195-276, looked up)
chain: B2 chain with A47D, E69P
notes: also called helix-disrupting DREB2A E263P variant; source: E. coli BL21 DE3, purified (glutathione Sepharose, TEV cleavage, SEC); not shown: GST, N-terminal, cleaved
B6: DREB2A_(195-276) W244A (domain or fragment, Arabidopsis thaliana, UniProt O82132 195-276, looked up)
chain: B2 chain with A47D, W50A
notes: as for B2
B7: DREB2A_(195-276) F259A (domain or fragment, Arabidopsis thaliana, UniProt O82132 195-276, looked up)
chain: B2 chain with A47D, F65A
notes: as for B2
B8: DREB2A_(195-276) F274A (domain or fragment, Arabidopsis thaliana, UniProt O82132 195-276, looked up)
chain: B2 chain with A47D, F80A
notes: as for B2
B9: DREB2A_(234-272) (domain or fragment, Arabidopsis thaliana, UniProt O82132 234-272, looked up)
chain: QDSLSVADYGWPNDVDQSHLDSSDMFDVDELLRDLNGDD
notes: DREB2A, Arabidopsis thaliana, AT5G05410, residues 234-272; source: E. coli BL21 DE3, purified (glutathione Sepharose, TEV cleavage, SEC); not shown: GST, N-terminal, cleaved
B10: DREB2A_(151-335) (domain or fragment, Arabidopsis thaliana, UniProt O82132 151-335, looked up)
chain: VCTVETPGCVHVKTEDPDCESKPFSGGVEPMYCLENGAEEMKRGVKADKHWLSEFEHNYWSDILKEKEKQKEQGIVETCQQQQQDSLSVADYGWPNDVDQSHLDSSDMFDVDELLRDLNGDDVFAGLNQDRYPGNSVANGSYRPESQQSGFDPLQSLNYGIPPFQLEGKDGNGFFDDLSYLDLEN
notes: also called C-terminal intrinsically disordered region (IDR) of DREB2A; source: E. coli BL21 DE3, purified (glutathione Sepharose, TEV cleavage, SEC); not shown: GST, N-terminal, cleaved
B11: DREB2A_(234-276,P245A) (domain or fragment, Arabidopsis thaliana, UniProt O82132 234-276, looked up)
chain: QDSLSVADYGWANDVDQSHLDSSDMFDVDELLRDLNGDDVFAG
notes: Isotope-labelled in the CEST experiments; also called ABS-RIM_(P245A); DREB2A_(P245A); source: E. coli BL21 DE3, purified (glutathione Sepharose, TEV cleavage, SEC); not shown: GST, N-terminal, cleaved
B12: DREB2A_(234-256) (ABS) (domain or fragment, Arabidopsis thaliana, UniProt O82132 234-256, looked up)
chain: QDSLSVADYGWPNDVDQSHLDSS
notes: also called monovalent ABS fragment; source: E. coli BL21 DE3, purified (glutathione Sepharose, TEV cleavage, SEC); not shown: GST, N-terminal, cleaved
B13: DREB2A_(195-335,Δ244-276) (domain or fragment, Arabidopsis thaliana, UniProt O82132 195-335, looked up)
chain: VKADKHWLSEFEHNYWSDILKEKEKQKEQGIVETCQQQQQDSLSVADYGLNQDRYPGNSVANGSYRPESQQSGFDPLQSLNYGIPPFQLEGKDGNGFFDDLSYLDLEN
notes: also called splice variant fragment; source: E. coli BL21 DE3, purified (glutathione Sepharose, TEV cleavage, SEC); not shown: GST, N-terminal, cleaved

The target of this assay is T1, Med25-ACID_(532-680), activator …. The assay is described as follows: ITC; 25 °C; 50 mM HEPES pH 7.4, 100 mM NaCl, 0.5 mM TCEP; ~1:10 cell to syringe concentration ratio, cell around 15 µM for high-affinity fragments; one-set-of-sites model; which protein was in the cell is not stated. To be noted: both partners purified. Background: Isothermal titration calorimetry measures the heat released or taken up as one component is titrated into another.
B1: the dissociation constant Kd is 440 nM, the dH was -58 kJ/mol and the “stoichiometry N” value was found to be 1.

Regarding B2, the Kd was determined as 2000 ± 700 nM, the dH was -37 ± 7 kJ/mol and the “stoichiometry N” value was determined as 1.07 ± 0.06.

For the molecule B3, the Kd is 2400 ± 300 nM, the dH was -22.9 ± 0.7 kJ/mol and the “stoichiometry N” value stood at 1.03 ± 0.06.

Turning to B4, the Kd was 2000 ± 200 nM, the dH is -42 ± 1 kJ/mol and the “stoichiometry N” value is 0.95 ± 0.01.

Consider B5, for which the Kd was found to be 580 ± 40 nM, the dH was -61.2 ± 0.8 kJ/mol and the “stoichiometry N” value came out at 1 ± 0.06.

With B6, the Kd was 1900 ± 200 nM, the dH is -47 ± 1 kJ/mol and the “stoichiometry N” value is 1 ± 0.1.

Turning to B7, the Kd is 550 ± 50 nM, the dH is -58.8 ± 0.9 kJ/mol and the “stoichiometry N” value amounted to 1.2 ± 0.1.

In the case of B8, the Kd came to 660 ± 90 nM, the dH is -62 ± 2 kJ/mol and the “stoichiometry N” value was 0.86 ± 0.02.

In the case of B9, the dissociation constant Kd was determined as 1800 nM, the dH was -43 kJ/mol and the “stoichiometry N” value amounted to 0.97.

With B10, the dH is -52.3 kJ/mol and the “stoichiometry N” value amounted to 1.1.

Regarding B11, the Kd amounted to 780 ± 60 nM, the dH is -43.4 ± 0.8 kJ/mol and the “stoichiometry N” value turned out to be 1.26 ± 0.01.

As for B12, the Kd was 6000 nM, the dH was -54 kJ/mol and the “stoichiometry N” value is 0.86.

In the case of B13, the Kd is 5400 nM, the dH was -59 kJ/mol and the “stoichiometry N” value turned out to be 1.02.

By Kd is commonly meant the constant that tells how readily two partners part at equilibrium. As a reminder, the stoichiometry N is the number of molecules, sites or subunits per partner or assembly.

For the origin of these results see article PMC10796322, “Molecular switching in transcription through splicing and proline-isomerization regulates stress responses in plants” (Nature Communications, 2024).
